These results are taken from patent publication US20250114463A1, “LIVER-TARGETED DRUG AND USE THEREOF” (HANMI PHARM. CO., LTD., priority 2021, published 2025).

Common to all, as to test: cell-based or functional assay
The target of one test is human GLP-1 receptor (human, UniProt P43220 24-463).
Another test deals with human GCG receptor (human, UniProt P47871 26-477).
In another test the target is T1, human GIP receptor (human, UniProt P48546 22-466).
T1 sequence (looked up): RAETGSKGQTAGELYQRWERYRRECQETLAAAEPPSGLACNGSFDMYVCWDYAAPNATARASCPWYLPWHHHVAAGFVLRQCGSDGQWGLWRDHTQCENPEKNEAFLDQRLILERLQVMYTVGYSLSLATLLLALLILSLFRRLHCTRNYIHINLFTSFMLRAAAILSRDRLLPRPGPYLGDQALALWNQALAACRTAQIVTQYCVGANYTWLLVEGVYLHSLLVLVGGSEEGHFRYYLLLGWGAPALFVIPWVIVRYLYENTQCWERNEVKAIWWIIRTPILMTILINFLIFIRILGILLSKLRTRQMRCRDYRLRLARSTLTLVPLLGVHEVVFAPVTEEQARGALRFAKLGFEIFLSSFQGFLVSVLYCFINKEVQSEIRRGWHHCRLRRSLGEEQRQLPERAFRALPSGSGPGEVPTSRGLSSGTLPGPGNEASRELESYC

Bridges are numbered along the chain shown (N, C = ends). Where no end group is shown, it is not given here. [ ]: non-standard residue; d: D form. The star is where a group is joined. Acetyl(2-(4-imidazolyl)) = O=C(Cc1c[nH]cn1)*; Aib = CC(C)(N)C(=O)O Where only a bound is given, the exact number is not on record here.

Sequence of human GCG receptor (P47871 26-477): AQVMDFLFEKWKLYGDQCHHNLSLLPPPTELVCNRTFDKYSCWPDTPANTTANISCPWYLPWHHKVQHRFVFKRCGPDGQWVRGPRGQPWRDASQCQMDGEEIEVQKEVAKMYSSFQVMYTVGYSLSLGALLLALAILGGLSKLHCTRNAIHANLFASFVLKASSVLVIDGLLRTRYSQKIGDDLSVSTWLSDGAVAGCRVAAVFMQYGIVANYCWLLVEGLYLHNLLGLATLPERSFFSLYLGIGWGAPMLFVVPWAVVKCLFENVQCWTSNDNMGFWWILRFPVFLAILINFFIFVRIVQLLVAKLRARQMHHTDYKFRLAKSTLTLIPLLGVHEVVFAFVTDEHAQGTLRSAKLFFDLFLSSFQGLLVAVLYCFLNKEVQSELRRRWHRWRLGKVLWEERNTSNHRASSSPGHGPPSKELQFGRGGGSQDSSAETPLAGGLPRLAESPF

Take [Acetyl(2-(4-imidazolyl))][Aib]QGTFTSDYSICMDEIHQKDFVNWLLNTK (bridge 16-20; not fully specified (C-terminus)) [triple agonist of SEQ ID NO: 49]: the “in vitro Activity Compared to Native Peptide (%), vs GLP-1” value with human GLP-1 receptor was found to be 29.8%. Moreover, in the test with human GCG receptor, the “in vitro Activity Compared to Native Peptide (%), vs Glucagon” value was < 0.1%. In addition, the “in vitro Activity Compared to Native Peptide (%), vs GIP” value in the test with human GIP receptor came to 3.3%.

B1: triple agonist of SEQ ID NO: 40 (peptide)
peptide: HXQGTFTSDKSKYLDERACQDFVQWLLDGGPSSGAPPPS
HELM: PEPTIDE1{H.[Aib].Q.G.T.F.T.S.D.K.S.K.Y.L.D.E.R.A.C.Q.D.F.V.Q.W.L.L.D.G.G.P.S.S.G.A.P.P.P.S.[am]}$$$$V2.0; N-terminus assumed
SMILES: CC(C)C[C@H](NC(=O)[C@H](CC(C)C)NC(=O)[C@H](Cc1c[nH]c2ccccc12)NC(=O)[C@H](CCC(N)=O)NC(=O)[C@@H](NC(=O)[C@H](Cc1ccccc1)NC(=O)[C@H](CC(=O)O)NC(=O)[C@H](CCC(N)=O)NC(=O)[C@H](CS)NC(=O)[C@H](C)NC(=O)[C@H](CCCNC(=N)N)NC(=O)[C@H](CCC(=O)O)NC(=O)[C@H](CC(=O)O)NC(=O)[C@H](CC(C)C)NC(=O)[C@H](Cc1ccc(O)cc1)NC(=O)[C@H](CCCCN)NC(=O)[C@H](CO)NC(=O)[C@H](CCCCN)NC(=O)[C@H](CC(=O)O)NC(=O)[C@H](CO)NC(=O)[C@@H](NC(=O)[C@H](Cc1ccccc1)NC(=O)[C@@H](NC(=O)CNC(=O)[C@H](CCC(N)=O)NC(=O)C(C)(C)NC(=O)[C@@H](N)Cc1c[nH]cn1)[C@@H](C)O)[C@@H](C)O)C(C)C)C(=O)N[C@@H](CC(=O)O)C(=O)NCC(=O)NCC(=O)N1CCC[C@H]1C(=O)N[C@@H](CO)C(=O)N[C@@H](CO)C(=O)NCC(=O)N[C@@H](C)C(=O)N1CCC[C@H]1C(=O)N1CCC[C@H]1C(=O)N1CCC[C@H]1C(=O)N[C@@H](CO)C(N)=O
Consider B1, for which the “in vitro Activity Compared to Native Peptide (%), vs GLP-1” value with human GLP-1 receptor was determined as 75.2%. For the same molecule, in the test with human GCG receptor, the “in vitro Activity Compared to Native Peptide (%), vs Glucagon” value was < 0.1%. Also, the “in vitro Activity Compared to Native Peptide (%), vs GIP” value with human GIP receptor is < 0.1%.

B2: triple agonist of SEQ ID NO: 41 (peptide)
peptide: HXQGTFTSDKSKYLDECAAQDFVQWLLDGGPSSGAPPPS
HELM: PEPTIDE1{H.[Aib].Q.G.T.F.T.S.D.K.S.K.Y.L.D.E.C.A.A.Q.D.F.V.Q.W.L.L.D.G.G.P.S.S.G.A.P.P.P.S.[am]}$$$$V2.0; N-terminus assumed
SMILES: CC(C)C[C@H](NC(=O)[C@H](CC(C)C)NC(=O)[C@H](Cc1c[nH]c2ccccc12)NC(=O)[C@H](CCC(N)=O)NC(=O)[C@@H](NC(=O)[C@H](Cc1ccccc1)NC(=O)[C@H](CC(=O)O)NC(=O)[C@H](CCC(N)=O)NC(=O)[C@H](C)NC(=O)[C@H](C)NC(=O)[C@H](CS)NC(=O)[C@H](CCC(=O)O)NC(=O)[C@H](CC(=O)O)NC(=O)[C@H](CC(C)C)NC(=O)[C@H](Cc1ccc(O)cc1)NC(=O)[C@H](CCCCN)NC(=O)[C@H](CO)NC(=O)[C@H](CCCCN)NC(=O)[C@H](CC(=O)O)NC(=O)[C@H](CO)NC(=O)[C@@H](NC(=O)[C@H](Cc1ccccc1)NC(=O)[C@@H](NC(=O)CNC(=O)[C@H](CCC(N)=O)NC(=O)C(C)(C)NC(=O)[C@@H](N)Cc1c[nH]cn1)[C@@H](C)O)[C@@H](C)O)C(C)C)C(=O)N[C@@H](CC(=O)O)C(=O)NCC(=O)NCC(=O)N1CCC[C@H]1C(=O)N[C@@H](CO)C(=O)N[C@@H](CO)C(=O)NCC(=O)N[C@@H](C)C(=O)N1CCC[C@H]1C(=O)N1CCC[C@H]1C(=O)N1CCC[C@H]1C(=O)N[C@@H](CO)C(N)=O
Turning to B2, in the test with human GLP-1 receptor, the “in vitro Activity Compared to Native Peptide (%), vs GLP-1” value was determined as 34.3%. For the same molecule, the “in vitro Activity Compared to Native Peptide (%), vs Glucagon” value with human GCG receptor is < 0.1%. The “in vitro Activity Compared to Native Peptide (%), vs GIP” value with human GIP receptor was < 0.1%.
As for H[Aib]QGTFTSDYSKYLDEKRAKEFVQWLLDHHPSSGQPPPSC-NH2 (bridge 16-20) [triple agonist of SEQ ID NO: 50], the “in vitro Activity Compared to Native Peptide (%), vs GLP-1” value with human GLP-1 receptor was 67.4%. Further, the “in vitro Activity Compared to Native Peptide (%), vs Glucagon” value with human GCG receptor turned out to be 50.5%. The “in vitro Activity Compared to Native Peptide (%), vs GIP” value in the test with human GIP receptor is 2.7%.
Consider H[Aib]QGTFTSDVSSYLLGQQQKEFIAWLVKGGGPSSGAPPPSC-NH2 [triple agonist of SEQ ID NO: 5], for which the “in vitro Activity Compared to Native Peptide (%), vs GLP-1” value with human GLP-1 receptor was found to be 42.1%. For the same molecule, the “in vitro Activity Compared to Native Peptide (%), vs Glucagon” value in the test with human GCG receptor was < 0.1%. Further, in the test with human GIP receptor, the “in vitro Activity Compared to Native Peptide (%), vs GIP” value was < 0.1%.
As for H[Aib]QGTFTSDYSKYLDEKRQKEFVQWLLNTC (bridge 16-20; not fully specified (C-terminus)) [triple agonist of SEQ ID NO: 51], the “in vitro Activity Compared to Native Peptide (%), vs GLP-1” value with human GLP-1 receptor is 14.4%. For the same molecule, the “in vitro Activity Compared to Native Peptide (%), vs Glucagon” value in the test with human GCG receptor was 2%. For the same molecule, the “in vitro Activity Compared to Native Peptide (%), vs GIP” value in the test with human GIP receptor is 0.1%.
For HGQGTFTSDCSKQLDGQAAQEFVAWLLAGGPSSGAPPPS (not fully specified (C-terminus)) [triple agonist of SEQ ID NO: 44] the same measures were 1.3%, < 0.1% and < 0.1%.
For HGQGTFTSDCSKYMDGQAAQDFVAWLLAGGPSSGAPPPS (not fully specified (C-terminus)) [triple agonist of SEQ ID NO: 45] the same measures were 6.6%, < 0.1% and < 0.1%.
Regarding HGQGTFTSDCSKYLDGQRAQDFVNWLLAGGPSSGAPPPS (not fully specified (C-terminus)) [triple agonist of SEQ ID NO: 48], the “in vitro Activity Compared to Native Peptide (%), vs GLP-1” value in the test with human GLP-1 receptor amounted to 1.5%. Further, in the test with human GCG receptor, the “in vitro Activity Compared to Native Peptide (%), vs Glucagon” value was < 0.1%. The “in vitro Activity Compared to Native Peptide (%), vs GIP” value with human GIP receptor was < 0.1%.
Turning to HGQGTFTSDCSKYLDGQRAQEFVAWLLAGGPSSGAPPPS (not fully specified (C-terminus)) [triple agonist of SEQ ID NO: 47], the “in vitro Activity Compared to Native Peptide (%), vs GLP-1” value with human GLP-1 receptor was 2.4%. Further, the “in vitro Activity Compared to Native Peptide (%), vs Glucagon” value with human GCG receptor is < 0.1%. For the same molecule, the “in vitro Activity Compared to Native Peptide (%), vs GIP” value with human GIP receptor was < 0.1%.
As to HGQGTFTSDCSKYLDEQHAQEFVAWLLAGGPSSGAPPPS (not fully specified (C-terminus)) [triple agonist of SEQ ID NO: 46], the “in vitro Activity Compared to Native Peptide (%), vs GLP-1” value with human GLP-1 receptor was 1.4%. Moreover, the “in vitro Activity Compared to Native Peptide (%), vs Glucagon” value with human GCG receptor is < 0.1%. The “in vitro Activity Compared to Native Peptide (%), vs GIP” value in the test with human GIP receptor was < 0.1%.
As for Y[Aib]QGTFTSDYSKYLDEKRAKEFVQWLLDHHCSSGQPPPS-NH2 (bridge 16-20) [triple agonist of SEQ ID NO: 43], the “in vitro Activity Compared to Native Peptide (%), vs GLP-1” value with human GLP-1 receptor amounted to 12.6%. In addition, in the test with human GCG receptor, the “in vitro Activity Compared to Native Peptide (%), vs Glucagon” value was 88.4%. The “in vitro Activity Compared to Native Peptide (%), vs GIP” value in the test with human GIP receptor was found to be 3.7%.
For Y[Aib]QGTFTSDYSKYLDEKRAKEFVQWLLDHHPSSGQPPPSC-NH2 (bridge 16-20) [triple agonist of SEQ ID NO: 42] the same measures were 33.9%, 206% and 7.8%.
